Among the data in paper PMC6250052 (Neurobiology of disease, 2018) are Kd values, retold here.

The Kd is the constant that tells how readily two partners part at equilibrium. Lower therefore signals tighter binding.

The chains are these.
B1: purified hCypD protein (human Cyclophilin D) (enzyme)
chain: not shown
B2: glutathione S-transferase (GST)-tagged OSCP (human oligomycin sensitivity conferring protein) (natural protein, UniProt P48047 24-213, looked up)
chain: FAKLVRPPVQVYGIEGRYATALYSAASKQNKLEQVEKELLRVAQILKEPKVAASVLNPYVKRSIKVKSLNDITAKERFSPLTTNLINLLAENGRLSNTQGVVSAFSTMMSVHRGEVPCTVTSASPLEEATLSELKTVLKSFLSQGQVLKLEAKTDPSILGGMIVRIGEKYVDMSVKTKIQKLGRAMREIV

Assay in all cases: pull-down
Assay [1] concerns the target B2.
Assay [2] addresses B2. This is another data set of the same source.
Assay [3] deals with Aβ peptide (ApexBio).
The target in assay [4] is Aβ peptide (ApexBio). The source holds these as a separate data set.

Where two headings read alike, the source gives them in different places.

On to B1, for which the results for the dissociation constant (Kd) in assay [1] and in assay [2] were 60 ± 1 nM and 100 ± 15 nM, respectively.

For B2, the equilibrium dissociation constant (Kd) with Aβ peptide (ApexBio) [3] was 88 ± 43 nM; with Aβ peptide (ApexBio) [4] it was 510 ± 71 nM.
